The values that follow come from patent publication US20150140169.

For this data set, the target named is T1, alpha-s1 casein from Bos taurus.
T1 chain: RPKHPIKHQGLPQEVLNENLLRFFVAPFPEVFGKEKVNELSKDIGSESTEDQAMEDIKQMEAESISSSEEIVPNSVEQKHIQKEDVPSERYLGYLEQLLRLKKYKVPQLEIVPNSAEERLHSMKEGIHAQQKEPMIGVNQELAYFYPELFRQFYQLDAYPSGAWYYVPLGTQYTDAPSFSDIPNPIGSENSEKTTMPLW

B1: camel chymosin variant #147 (Q288H) (protein)
chain: GKVAREPLTSYLDSQYFGKIYIGTPPQEFTVVFDTGSSDLWVPSIYCKSNVCKNHHRFDPRKSSTFRNLGKPLSIHYGTGSMEGFLGYDTVTVSNIVDPNQTVGLSTEQPGEVFTYSEFDGILGLAYPSLASEYSVPVFDNMMDRHLVARDLFSVYMDRNGQGSMLTLGAIDPSYYTGSLHWVPVTLQQYWQFTVDSVTINGVAVACVGGCQAILDTGTSVLFGPSSDILKIQMAIGATENRYGEFDVNCGNLRSMPTVVFEINGRDYPLSPSAYTSKDQGFCTSGFHGDNNSELWILGDVFIREYYSVFDRANNRVGLAKAI
Protein B1 came in with a (αSN1-1)/(αSN1), 6 hours, 11° C. of 1.1; a (αSN1-1)/(αSN1), 24 hours, 11° C. of 3.3; a αs1-I CN, 6 hours, 11° C. of 2.28e+07 Volume; a αs1-I CN, 24 hours, 11° C. of 2.35e+07 Volume. This protein registered a αs1 CN, 6 hours, 11° C. of 2.15e+07 Volume and a αs1 CN, 24 hours, 11° C. of 7e+06 Volume.

B2: camel chymosin variant #149 (Q288R) (protein)
chain: GKVAREPLTSYLDSQYFGKIYIGTPPQEFTVVFDTGSSDLWVPSIYCKSNVCKNHHRFDPRKSSTFRNLGKPLSIHYGTGSMEGFLGYDTVTVSNIVDPNQTVGLSTEQPGEVFTYSEFDGILGLAYPSLASEYSVPVFDNMMDRHLVARDLFSVYMDRNGQGSMLTLGAIDPSYYTGSLHWVPVTLQQYWQFTVDSVTINGVAVACVGGCQAILDTGTSVLFGPSSDILKIQMAIGATENRYGEFDVNCGNLRSMPTVVFEINGRDYPLSPSAYTSKDQGFCTSGFRGDNNSELWILGDVFIREYYSVFDRANNRVGLAKAI
Turning to B2, the (αSN1-1)/(αSN1), 6 hours, 11° C. amounted to 1; the (αSN1-1)/(αSN1), 24 hours, 11° C. was 3.3; the αs1-I CN, 6 hours, 11° C. was found to be 2.16e+07 Volume; the αs1-I CN, 24 hours, 11° C. worked out at 2.25e+07 Volume. The same protein gave a αs1 CN, 6 hours, 11° C. of 2.22e+07 Volume and a αs1 CN, 24 hours, 11° C. of 6.7e+06 Volume.

B3: camel chymosin variant #151 (D290A) (protein)
chain: GKVAREPLTSYLDSQYFGKIYIGTPPQEFTVVFDTGSSDLWVPSIYCKSNVCKNHHRFDPRKSSTFRNLGKPLSIHYGTGSMEGFLGYDTVTVSNIVDPNQTVGLSTEQPGEVFTYSEFDGILGLAYPSLASEYSVPVFDNMMDRHLVARDLFSVYMDRNGQGSMLTLGAIDPSYYTGSLHWVPVTLQQYWQFTVDSVTINGVAVACVGGCQAILDTGTSVLFGPSSDILKIQMAIGATENRYGEFDVNCGNLRSMPTVVFEINGRDYPLSPSAYTSKDQGFCTSGFQGANNSELWILGDVFIREYYSVFDRANNRVGLAKAI
B3 returned a (αSN1-1)/(αSN1), 6 hours, 11° C. of 1; a (αSN1-1)/(αSN1), 24 hours, 11° C. of 2.5; a αs1-I CN, 6 hours, 11° C. of 2.29e+07 Volume; a αs1-I CN, 24 hours, 11° C. of 3.22e+07 Volume. The same protein had a αs1 CN, 6 hours, 11° C. of 2.31e+07 Volume and a αs1 CN, 24 hours, 11° C. of 1.31e+07 Volume.

B4: camel chymosin variant #155 (D290Q) (protein)
chain: GKVAREPLTSYLDSQYFGKIYIGTPPQEFTVVFDTGSSDLWVPSIYCKSNVCKNHHRFDPRKSSTFRNLGKPLSIHYGTGSMEGFLGYDTVTVSNIVDPNQTVGLSTEQPGEVFTYSEFDGILGLAYPSLASEYSVPVFDNMMDRHLVARDLFSVYMDRNGQGSMLTLGAIDPSYYTGSLHWVPVTLQQYWQFTVDSVTINGVAVACVGGCQAILDTGTSVLFGPSSDILKIQMAIGATENRYGEFDVNCGNLRSMPTVVFEINGRDYPLSPSAYTSKDQGFCTSGFQGQNNSELWILGDVFIREYYSVFDRANNRVGLAKAI
Turning to B4, the (αSN1-1)/(αSN1), 6 hours, 11° C. amounted to 0.7; the (αSN1-1)/(αSN1), 24 hours, 11° C. was 2.5; the αs1-I CN, 6 hours, 11° C. was determined as 2.03e+07 Volume; the αs1-I CN, 24 hours, 11° C. was found to be 3.36e+07 Volume. The αs1 CN, 6 hours, 11° C. was 3.02e+07 Volume and the αs1 CN, 24 hours, 11° C. came to 1.35e+07 Volume.

B5: camel chymosin variant #150 (Q288S) (protein)
chain: GKVAREPLTSYLDSQYFGKIYIGTPPQEFTVVFDTGSSDLWVPSIYCKSNVCKNHHRFDPRKSSTFRNLGKPLSIHYGTGSMEGFLGYDTVTVSNIVDPNQTVGLSTEQPGEVFTYSEFDGILGLAYPSLASEYSVPVFDNMMDRHLVARDLFSVYMDRNGQGSMLTLGAIDPSYYTGSLHWVPVTLQQYWQFTVDSVTINGVAVACVGGCQAILDTGTSVLFGPSSDILKIQMAIGATENRYGEFDVNCGNLRSMPTVVFEINGRDYPLSPSAYTSKDQGFCTSGFSGDNNSELWILGDVFIREYYSVFDRANNRVGLAKAI
With B5, the (αSN1-1)/(αSN1), 6 hours, 11° C. stood at 0.6; the (αSN1-1)/(αSN1), 24 hours, 11° C. came out at 1.3; the αs1-I CN, 6 hours, 11° C. came to 1.83e+07 Volume; the αs1-I CN, 24 hours, 11° C. came out at 2.31e+07 Volume. For the same protein, the αs1 CN, 6 hours, 11° C. came to 2.87e+07 Volume and the αs1 CN, 24 hours, 11° C. turned out to be 1.72e+07 Volume.

B6: camel chymosin variant #153 (D290L) (protein)
chain: GKVAREPLTSYLDSQYFGKIYIGTPPQEFTVVFDTGSSDLWVPSIYCKSNVCKNHHRFDPRKSSTFRNLGKPLSIHYGTGSMEGFLGYDTVTVSNIVDPNQTVGLSTEQPGEVFTYSEFDGILGLAYPSLASEYSVPVFDNMMDRHLVARDLFSVYMDRNGQGSMLTLGAIDPSYYTGSLHWVPVTLQQYWQFTVDSVTINGVAVACVGGCQAILDTGTSVLFGPSSDILKIQMAIGATENRYGEFDVNCGNLRSMPTVVFEINGRDYPLSPSAYTSKDQGFCTSGFQGLNNSELWILGDVFIREYYSVFDRANNRVGLAKAI
Take B6: the (αSN1-1)/(αSN1), 6 hours, 11° C. came to 1; the (αSN1-1)/(αSN1), 24 hours, 11° C. stood at 4.9; the αs1-I CN, 6 hours, 11° C. turned out to be 2.35e+07 Volume; the αs1-I CN, 24 hours, 11° C. turned out to be 3.49e+07 Volume. For the same protein, the αs1 CN, 6 hours, 11° C. was 2.36e+07 Volume and the αs1 CN, 24 hours, 11° C. stood at 7.1e+06 Volume.

B7: camel chymosin variant #154 (D290M) (protein)
chain: GKVAREPLTSYLDSQYFGKIYIGTPPQEFTVVFDTGSSDLWVPSIYCKSNVCKNHHRFDPRKSSTFRNLGKPLSIHYGTGSMEGFLGYDTVTVSNIVDPNQTVGLSTEQPGEVFTYSEFDGILGLAYPSLASEYSVPVFDNMMDRHLVARDLFSVYMDRNGQGSMLTLGAIDPSYYTGSLHWVPVTLQQYWQFTVDSVTINGVAVACVGGCQAILDTGTSVLFGPSSDILKIQMAIGATENRYGEFDVNCGNLRSMPTVVFEINGRDYPLSPSAYTSKDQGFCTSGFQGMNNSELWILGDVFIREYYSVFDRANNRVGLAKAI
Take B7: the (αSN1-1)/(αSN1), 6 hours, 11° C. is 1.1; the (αSN1-1)/(αSN1), 24 hours, 11° C. amounted to 4.6; the αs1-I CN, 6 hours, 11° C. is 2.69e+07 Volume; the αs1-I CN, 24 hours, 11° C. was found to be 3.77e+07 Volume. This protein also showed a αs1 CN, 6 hours, 11° C. of 2.52e+07 Volume and a αs1 CN, 24 hours, 11° C. of 8.3e+06 Volume.

B8: camel chymosin variant #152 (D290G) (protein)
chain: GKVAREPLTSYLDSQYFGKIYIGTPPQEFTVVFDTGSSDLWVPSIYCKSNVCKNHHRFDPRKSSTFRNLGKPLSIHYGTGSMEGFLGYDTVTVSNIVDPNQTVGLSTEQPGEVFTYSEFDGILGLAYPSLASEYSVPVFDNMMDRHLVARDLFSVYMDRNGQGSMLTLGAIDPSYYTGSLHWVPVTLQQYWQFTVDSVTINGVAVACVGGCQAILDTGTSVLFGPSSDILKIQMAIGATENRYGEFDVNCGNLRSMPTVVFEINGRDYPLSPSAYTSKDQGFCTSGFQGGNNSELWILGDVFIREYYSVFDRANNRVGLAKAI
B8 returned a (αSN1-1)/(αSN1), 6 hours, 11° C. of 0.9; a (αSN1-1)/(αSN1), 24 hours, 11° C. of 3.4; a αs1-I CN, 6 hours, 11° C. of 2.18e+07 Volume; a αs1-I CN, 24 hours, 11° C. of 3.33e+07 Volume. The protein also gave a αs1 CN, 6 hours, 11° C. of 2.51e+07 Volume and a αs1 CN, 24 hours, 11° C. of 9.7e+06 Volume.

B9: camel chymosin variant #148 (Q288N) (protein)
chain: GKVAREPLTSYLDSQYFGKIYIGTPPQEFTVVFDTGSSDLWVPSIYCKSNVCKNHHRFDPRKSSTFRNLGKPLSIHYGTGSMEGFLGYDTVTVSNIVDPNQTVGLSTEQPGEVFTYSEFDGILGLAYPSLASEYSVPVFDNMMDRHLVARDLFSVYMDRNGQGSMLTLGAIDPSYYTGSLHWVPVTLQQYWQFTVDSVTINGVAVACVGGCQAILDTGTSVLFGPSSDILKIQMAIGATENRYGEFDVNCGNLRSMPTVVFEINGRDYPLSPSAYTSKDQGFCTSGFNGDNNSELWILGDVFIREYYSVFDRANNRVGLAKAI
For the protein B9, the (αSN1-1)/(αSN1), 6 hours, 11° C. turned out to be 0.6; the (αSN1-1)/(αSN1), 24 hours, 11° C. worked out at 1.3; the αs1-I CN, 6 hours, 11° C. was 1.74e+07 Volume; the αs1-I CN, 24 hours, 11° C. was determined as 2.62e+07 Volume. Besides, the αs1 CN, 6 hours, 11° C. is 2.83e+07 Volume and the αs1 CN, 24 hours, 11° C. stood at 2.03e+07 Volume.

B10: bovine chymosin B variant #1 (A51V) (protein)
chain: GEVASVPLTNYLDSQYFGKIYLGTPPQEFTVLFDTGSSDFWVPSIYCKSNVCKNHQRFDPRKSSTFQNLGKPLSIHYGTGSMQGILGYDTVTVSNIVDIQQTVGLSTQEPGDVFTYAEFDGILGMAYPSLASEYSIPVFDNMMNRHLVAQDLFSVYMDRNGQESMLTLGAIDPSYYTGSLHWVPVTVQQYWQFTVDSVTISGVVVACEGGCQAILDTGTSKLVGPSSDILNIQQAIGATQNQYGEFDIDCDNLSYMPTVVFEINGKMYPLTPSAYTSQDQGFCTSGFQSENHSQKWILGDVFIREYYSVFDRANNLVGLAKAI
With B10, the “hydrolysis of the first cut in alpha-s1-casein” value is reported as “show a clear hydrolysis of the first cut in alpha-s1-casein, leading to a rapid formation of fragment alpha-s1-I casein”; the small, 6 hours, 11° C. amounted to 0 Volume; the small, 24 hours, 11° C. was 0 Volume; the αs1-I CN, 6 hours, 11° C. amounted to 1.88e+07 Volume. Further, the αs1-I CN, 24 hours, 11° C. is 2.36e+07 Volume; the αs1-I CN/αs1 CN, 6 hours, 11° C. stood at 0.9; the αs1-I CN/αs1 CN, 24 hours, 11° C. stood at 4.1; the αs1 CN, 6 hours, 11° C. amounted to 2.05e+07 Volume. The αs1 CN, 24 hours, 11° C. is 5.8e+06 Volume.
